6 molecules from US20150045310A1 can be followed below.

Where no end group is shown, it is not given here. eCPX = enhanced circularly permuted OmpX display scaffold; linker = not defined here

Assay [1] concerns the target A1 (biotinylated pro-survival Bcl-2 family protein) (UniProt Q16548). Kind of assay: flow cytometry of E. coli displaying the peptide on eCPX, biotinylated target + streptavidin-PE; apparent Kd. For orientation: A flow cytometer gives signals particle by particle.
The target is the same in assay [2]. Nature of the assay: apparent Kd, bacterial surface display and flow cytometry.

B1: Bim BH3 14-mer variant M2-4 displayed on eCPX (peptide, not shown: large carriers; small tags and cut ends)
peptide: WLAQLLRRIGDEIN-{linker-eCPX}
modifications: reading uncertain; also: printed as Trp-Leu-Ala-Gln-Leu-Leu-Arg-Arg-Ile-Gly-Asp-Glu-Ile-Asn
For B1, the Kd in assay [1] was 4.18 nM. Besides, the fold affinity improvement against wild-type Bim 14-mer in assay [2] is 6 fold.

Turning to WIAQQLRRIGDEFN (peptide, not shown: large carriers; small tags and cut ends, not fully specified) [Bim BH3 14-mer E151Q (pseudo-wild-type) displayed on eCPX], the Kd in assay [1] stood at 29.6 nM.

As for WLAQLLRRYGDEFN (peptide, not shown: large carriers; small tags and cut ends, also: displayed as fusion to eCPX scaffold (letters not given here)) [Bim BH3 14-mer variant X2-8 displayed on eCPX], in assay [1], the Kd worked out at 40.5 nM.

B2: Bim BH3 14-mer variant M2-2 displayed on eCPX (peptide, not shown: large carriers; small tags and cut ends)
peptide: WVAQLLRRIGDEVN-{linker-eCPX}
modifications: reading uncertain; also: printed as Trp-Val-Ala-Gln-Leu-Leu-Arg-Arg-Ile-Gly-Asp-Glu-Val-Asn
As to B2, in assay [1], the Kd was determined as 9.99 nM. For the same molecule, the fold affinity improvement against wild-type Bim 14-mer in assay [2] was determined as 3 fold.

For the molecule WVAQWLRRWGDEFN (peptide, not shown: large carriers; small tags and cut ends, also: displayed as fusion to eCPX scaffold (letters not given here)) [Bim BH3 14-mer variant X2-3 displayed on eCPX], the Kd in assay [1] worked out at 30.2 nM.

On to WIAQELRRIGDEFN-{linker-eCPX} (peptide, not shown: large carriers; small tags and cut ends, reading uncertain) [wild-type Bim BH3 14-mer peptide (residues 147-160) displayed on eCPX], for which the Kd in assay [1] came out at 26.9 nM.
